Reference: patent publication US20050026839A1 (GENERAL HOSPITAL, published 2005)
Square brackets hold non-standard residues; d marks the D form. Ends that are not written are not given here. hArg = N=C(N)NCCCC[C@H](N)C(=O)O; Aib = CC(C)(N)C(=O)O

Assays:
[1] = target: wild-type human PTH/PTHrP receptor (hP1R-WT) (human) (UniProt Q03431); assay: cell-based or functional assay
[2] = target: T1, wild-type human PTH/PTHrP receptor (hP1R-WT) (human, UniProt Q03431 27-593); assay: competition binding, 125I-[M]PTH(1-21) tracer, HKRK-B28 cells
T1 construct: whole, on cells; HKRK-B28 cells express ~280,000 receptors per cell; also called PTH-1 receptor; PTH-1R
T1 sequence (looked up): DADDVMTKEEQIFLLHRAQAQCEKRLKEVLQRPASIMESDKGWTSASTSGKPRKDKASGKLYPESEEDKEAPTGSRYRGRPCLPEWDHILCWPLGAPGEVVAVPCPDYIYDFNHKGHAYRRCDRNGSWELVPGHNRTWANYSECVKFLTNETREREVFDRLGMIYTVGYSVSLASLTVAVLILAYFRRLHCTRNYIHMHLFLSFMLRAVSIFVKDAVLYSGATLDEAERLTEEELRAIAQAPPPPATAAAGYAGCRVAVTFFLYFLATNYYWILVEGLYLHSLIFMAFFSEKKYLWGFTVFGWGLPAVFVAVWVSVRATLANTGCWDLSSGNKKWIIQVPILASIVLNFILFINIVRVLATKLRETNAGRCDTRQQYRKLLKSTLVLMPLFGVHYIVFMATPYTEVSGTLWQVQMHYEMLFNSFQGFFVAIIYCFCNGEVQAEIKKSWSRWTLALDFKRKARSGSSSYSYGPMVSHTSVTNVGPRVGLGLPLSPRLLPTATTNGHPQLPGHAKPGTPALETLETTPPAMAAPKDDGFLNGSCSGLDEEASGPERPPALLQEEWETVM
Description: (§1) Cells were then placed on ice, the binding medium was removed, and the monolayer was rinsed three times with 0.5 mL of cold binding buffer. The cells were subsequently lysed with 0.5 mL […] NaOH and counted for radioactivity. For each tracer and in each experiment, the non-specific binding was determined as the radioactivity that bound in the presence of the same unlabeled peptide at a concentration of 1 μM, and was ˜1% of total radioactivity added for each tracer. The maximum specific binding (B₀) was the total radioactivity bound in the absence of competing ligand, corrected for nonspecific binding, and for each tracer, ranged from 8% to 20% of the total radioactivity added. Nonlinear regression was used to calculate binding IC₅₀ values (see below). Scatchard transformations of homologous competition binding data derived from studies with 26 fmol of ¹²⁵I-[Aib^{1,3},M]PTH(1-21) were employed for estimations of apparent equilibrium dissociation constant (kDapps) and total number of ligand binding sites (Bₘₐₓ), assuming a single class of binding sites and equal affinities of the iodinated and non iodinated ligand.
Relative to the apparent binding affinity of [M]PTH(1-14), most of the Aib substitutions reduced affinity, in accordance with the corresponding effects on cAMP-signaling potency (Table 1).

[3] = target: T1, wild-type human PTH/PTHrP receptor …; assay: competition binding, 125I-[M]PTH(1-21) tracer, HKRK-B28 cells, 4 h at 4 C
Description: as §1, with “Competition Binding. Binding reactions were performed with HKRK-B28 cells or in COS-7 cells in 24-well plates. The cells were rinsed with 0.5 mL of binding buffer, and then treated successively with 100 μL binding buffer, 100 μL of binding buffer containing various amounts of unlabeled competitor ligand, and 100 μL of binding buffer containing ca. 100,000 cpm of ¹²⁵I-[M]PTH(1-21) or ¹²⁵I-[Aib^{1,3},M]PTH(1-21)} (ca. 26 fmol; final volume=300 μL). Incubations were 4 to 6 h at 4° C., at which time near equilibrium conditions were attained. Cells” for “Cells”
Peptides PTH(1-34) ([Nle^{8,21}, Tyr³⁴]PTH(1-34)amide), [M]PTH(1-14) (M = Ala^{3,12}, Gln¹⁰, Har¹¹, Trp¹⁴), and [M]PTH(1-14 analogs, or C-terminally truncated derivatives thereof, containing α-aminoisobutyric acid (Aib) substitutions at the indicated positions were functionally evaluated in HKRK-B28 cells. “M” in [Aib^{1,3}, M]PTH(1-21) = Nle⁸, Gln¹⁰, Har¹¹, Ala¹², Trp¹⁴, Arg¹⁹ and Tyr²¹. The basal cAMP values (not subtracted) were 4.0 ± 0.1 pmole/well (n = 10). Peptides were based on the rat PTH sequence and were carboxy-amidated. Competition binding analyses were performed with ¹²⁵I-[M]PTH(1-21 )amide (Ala^{1,3}) as tracer for 4 h at 4° C. Data are means (±S.E.M.) Of the number of experiments indiated (n).

[4] = target: T1, wild-type human PTH/PTHrP receptor …; assay: cell-based or functional assay
[5] = target: T1, wild-type human PTH/PTHrP receptor …; assay: cell-based or functional assay; remark: listed apart in the source

Row | Molecule | cAMP EC50 [1] [nM] | cAMP EMax(obs.) [1] [pmole/well] | fold improvement in affinity relative to [M]PTH(1-14) [2] [fold] | IC50 [3] [nM] | cAMP EC50 [4] [nM] | cAMP EMax(obs.) [4] [pmole/well] | cAMP EC50 in SaOS-2 cells [5] [nM] | cAMP EMAX(obs.) in SaOS-2 cells [5] [pmole/well] | fold reduction in affinity relative to [M]PTH(1-14) [2] [fold]
1 | [Aib^11,M]PTH(1-14) (peptide) | 67000 | 96 | – | – | – | – | – | – | –
2 | AVAEIQLMH[Aib][hArg]AKW-NH2 (N-terminus assumed; SMILES CC[C@H](C)[C@H](NC(=O)[C@H](CCC(=O)O)NC(=O)[C@H](C)NC(=O)[C@@H](NC(=O)[C@H](C)N)C(C)C)C(=O)N[C@@H](CCC(N)=O)C(=O)N[C@@H](CC(C)C)C(=O)N[C@@H](CCSC)C(=O)N[C@@H](Cc1c[nH]cn1)C(=O)NC(C)(C)C(=O)N[C@@H](CCCCNC(=N)N)C(=O)N[C@@H](C)C(=O)N[C@@H](CCCCN)C(=O)N[C@@H](Cc1c[nH]c2ccccc12)C(N)=O, Aib scan of [M]PTH(1-14); Aib replaces the Gln^10 of [M]; also called 631 Aib-10) [[Aib^10,M]PTH(1-14)] | – | – | 1.4 | 9100 | 3000 | 214 | – | – | –
3 | AV[Aib]EIQLMHQ[hArg]AKW-NH2 (N-terminus assumed; SMILES CC[C@H](C)[C@H](NC(=O)[C@H](CCC(=O)O)NC(=O)C(C)(C)NC(=O)[C@@H](NC(=O)[C@H](C)N)C(C)C)C(=O)N[C@@H](CCC(N)=O)C(=O)N[C@@H](CC(C)C)C(=O)N[C@@H](CCSC)C(=O)N[C@@H](Cc1c[nH]cn1)C(=O)N[C@@H](CCC(N)=O)C(=O)N[C@@H](CCCCNC(=N)N)C(=O)N[C@@H](C)C(=O)N[C@@H](CCCCN)C(=O)N[C@@H](Cc1c[nH]c2ccccc12)C(N)=O, also called 624 Aib-3) [[Aib^3,M]PTH(1-14)] | – | – | 8 | 1700 | 13 | 269 | 42 | 330 | –
4 | [Aib]VAEIQLMHQ[hArg]AKW-NH2 (N-terminus assumed; SMILES CC[C@H](C)[C@H](NC(=O)[C@H](CCC(=O)O)NC(=O)[C@H](C)NC(=O)[C@@H](NC(=O)C(C)(C)N)C(C)C)C(=O)N[C@@H](CCC(N)=O)C(=O)N[C@@H](CC(C)C)C(=O)N[C@@H](CCSC)C(=O)N[C@@H](Cc1c[nH]cn1)C(=O)N[C@@H](CCC(N)=O)C(=O)N[C@@H](CCCCNC(=N)N)C(=O)N[C@@H](C)C(=O)N[C@@H](CCCCN)C(=O)N[C@@H](Cc1c[nH]c2ccccc12)C(N)=O, also called 622 Aib-1) [[Aib^1,M]PTH(1-14)] | – | – | 13 | 980 | 10 | 273 | 22 | 340 | –
5 | AVAEIQLMHQ[hArg]AK[Aib]-NH2 (N-terminus assumed; SMILES CC[C@H](C)[C@H](NC(=O)[C@H](CCC(=O)O)NC(=O)[C@H](C)NC(=O)[C@@H](NC(=O)[C@H](C)N)C(C)C)C(=O)N[C@@H](CCC(N)=O)C(=O)N[C@@H](CC(C)C)C(=O)N[C@@H](CCSC)C(=O)N[C@@H](Cc1c[nH]cn1)C(=O)N[C@@H](CCC(N)=O)C(=O)N[C@@H](CCCCNC(=N)N)C(=O)N[C@@H](C)C(=O)N[C@@H](CCCCN)C(=O)NC(C)(C)C(N)=O, Aib scan of [M]PTH(1-14); Aib replaces the Trp^14 of [M]; also called 635 Aib-14) [[Aib^14,M]PTH(1-14)] | – | – | – | 79000 | 350 | 273 | – | – | < 10
6 | AVAEIQLMHQ[hArg][Aib]KW-NH2 (N-terminus assumed; SMILES CC[C@H](C)[C@H](NC(=O)[C@H](CCC(=O)O)NC(=O)[C@H](C)NC(=O)[C@@H](NC(=O)[C@H](C)N)C(C)C)C(=O)N[C@@H](CCC(N)=O)C(=O)N[C@@H](CC(C)C)C(=O)N[C@@H](CCSC)C(=O)N[C@@H](Cc1c[nH]cn1)C(=O)N[C@@H](CCC(N)=O)C(=O)N[C@@H](CCCCNC(=N)N)C(=O)NC(C)(C)C(=O)N[C@@H](CCCCN)C(=O)N[C@@H](Cc1c[nH]c2ccccc12)C(N)=O, Aib scan of [M]PTH(1-14); Aib replaces the Ala^12 of [M]; also called 633 Aib-12) [[Aib^12,M]PTH(1-14)] | – | – | – | 15000 | 440 | 263 | – | – | < 10
7 | AVAEIQLMHQ[hArg]A[Aib]W-NH2 (N-terminus assumed; SMILES CC[C@H](C)[C@H](NC(=O)[C@H](CCC(=O)O)NC(=O)[C@H](C)NC(=O)[C@@H](NC(=O)[C@H](C)N)C(C)C)C(=O)N[C@@H](CCC(N)=O)C(=O)N[C@@H](CC(C)C)C(=O)N[C@@H](CCSC)C(=O)N[C@@H](Cc1c[nH]cn1)C(=O)N[C@@H](CCC(N)=O)C(=O)N[C@@H](CCCCNC(=N)N)C(=O)N[C@@H](C)C(=O)NC(C)(C)C(=O)N[C@@H](Cc1c[nH]c2ccccc12)C(N)=O, Aib scan of [M]PTH(1-14); also called 634 Aib-13) [[Aib^13,M]PTH(1-14)] | – | – | – | 44000 | 480 | 259 | – | – | < 10
